From patent US20170342155A1 (Amgen, published 2017)
Residue numbers refer to the chain shown, from its start.

How the values were obtained:
Assay in all cases: flow cytometry on transfected 293T cells, PE secondary antibody, geo mean
[1] = target: T1, murine CCR7 Y44F/V47L/K201R/N202S/G204S/T207A/L208M construct 20110105423 (mouse, UniProt P47774 25-378)
T1 construct: Murine CCR7 with seven human residues; also called YVKNGTL; construct YVKNGTL
T1 chain: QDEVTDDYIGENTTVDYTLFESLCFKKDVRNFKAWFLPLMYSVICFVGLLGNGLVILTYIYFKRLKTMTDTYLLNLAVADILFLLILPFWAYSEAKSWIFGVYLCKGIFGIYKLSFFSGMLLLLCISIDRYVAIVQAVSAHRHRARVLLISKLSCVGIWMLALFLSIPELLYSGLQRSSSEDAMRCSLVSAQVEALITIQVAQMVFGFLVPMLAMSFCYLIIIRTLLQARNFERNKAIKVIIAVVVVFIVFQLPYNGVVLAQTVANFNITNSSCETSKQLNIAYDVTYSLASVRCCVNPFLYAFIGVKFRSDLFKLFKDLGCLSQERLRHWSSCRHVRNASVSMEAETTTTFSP

[2] = target: T2, human CCR7 variant R201K (20100171268) (human, UniProt P32248 25-378)
T2 sequence: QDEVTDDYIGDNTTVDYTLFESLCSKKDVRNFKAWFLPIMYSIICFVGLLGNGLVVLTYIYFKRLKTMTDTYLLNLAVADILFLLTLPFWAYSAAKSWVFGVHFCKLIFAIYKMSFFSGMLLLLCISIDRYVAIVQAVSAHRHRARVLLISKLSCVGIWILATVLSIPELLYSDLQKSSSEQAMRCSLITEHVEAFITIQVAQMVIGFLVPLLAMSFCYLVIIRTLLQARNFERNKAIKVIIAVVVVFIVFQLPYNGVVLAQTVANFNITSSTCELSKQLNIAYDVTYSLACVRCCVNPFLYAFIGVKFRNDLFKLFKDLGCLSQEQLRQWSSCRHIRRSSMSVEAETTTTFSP

[3] = target: T3, human CCR7 variant D35E (20100122625) (human, UniProt P32248 25-378)
T3 construct: Human CCR7 with the murine residue at position 35; also called D35 variant
T3 sequence: T2 sequence with D11E, K177R

[4] = target: T4, human CCR7 variant F44Y (20100128285) (human, UniProt P32248 25-378)
T4 sequence: T2 sequence with F20Y, K177R

[5] = target: T5, human CCR7 variant S202N (20110009483) (human, UniProt P32248 25-378)
T5 sequence: T2 sequence with K177R, S178N

[6] = target: T6, human CCR7 variant F128L (20100126472) (human, UniProt P32248 25-378)
T6 sequence: T2 sequence with F104L, K177R

Measured: binding result

B1: antibody 6B4.1 (antibody, V domains shown)
VH: QVQLVESGGGVVQPGRSLRLSCAASGFTFSSYGMHWVRQAPGKGLEWVAVIWYDGSKKYYADSVKGRFTISRDNSKNTLYLQMNRLRAEDTAVYYCARDGGIAVFLQDNWFDPWGQGTLVTVSS
VL: SYELTQPPSVSVSPGQRARITCSGDKLGDKYASWYQQKPGQSPLLVIYQDSKRPSGIPERFSGSNSGNTATLTISGTQAMDEADYYCQAWGSSTVIFGGGTKLTVLG
notes: Human antibody from XenoMouse hybridoma; Light = 2 and heavy = 42 is inferred from the order of the listing (light chains first)
binds: [1] | [2] | [3] | [4] | [5] | [6]

B2: antibody 6B5.1 (antibody, human IgG2, lambda, V domains shown)
VH: B1 VH with S30R, Q107E
VL: B1 VL with R19S, S51G
notes: Human antibody from XenoMouse hybridoma; Light = 18 and heavy = 50 is inferred from the order of the listing
binds: [1] | [2] | [3] | [4] | [5] | [6]
